# Experimental data from patent publication US20260139263A1 (IOWA STATE UNIVERSITY RESEARCH FOUNDATION, published 2026).
# No end group written: not given here. nYFP = N-terminal end of yellow fluorescent protein
# T1: AtNF-YC4-cYFP (Arabidopsis thaliana, UniProt Q9FMV5 1-250)
# T1 construct: BiFC construct expressed in tobacco leaves; AtNF-YC4 is fused in-frame to the N-terminus of cYFP; not shown: cYFP (C-terminal end of yellow fluorescent protein)
# T1 sequence (looked up): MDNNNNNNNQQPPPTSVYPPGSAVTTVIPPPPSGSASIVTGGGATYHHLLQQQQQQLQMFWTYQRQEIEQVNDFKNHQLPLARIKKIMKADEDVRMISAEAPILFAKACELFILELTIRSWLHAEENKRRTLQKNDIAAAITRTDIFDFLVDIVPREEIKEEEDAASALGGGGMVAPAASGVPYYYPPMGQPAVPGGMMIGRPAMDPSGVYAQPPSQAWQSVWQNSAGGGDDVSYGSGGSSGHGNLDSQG
# T2: Arabidopsis Nuclear Factor YB7 (AtNF-YB7), recombinant, tagged, for pull-down (Arabidopsis, UniProt Q9SIT9 1-215)
# T2 construct: Contains a histone-fold-like domain; also called AtNF-YB7-GST fusion protein
# T2 sequence (looked up): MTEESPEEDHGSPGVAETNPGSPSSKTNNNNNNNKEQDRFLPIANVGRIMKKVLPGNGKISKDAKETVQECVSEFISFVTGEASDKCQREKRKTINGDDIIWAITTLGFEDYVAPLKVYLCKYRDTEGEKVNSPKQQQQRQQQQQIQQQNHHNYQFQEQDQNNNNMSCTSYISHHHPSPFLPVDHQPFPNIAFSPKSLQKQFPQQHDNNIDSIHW
# B1: QQS-nYFP (other)
# chain: MKTNREQEIYVERSFKPNNSTIQNLMDIERFILPHTSTSGVARLKMRVISWVGLQFYNY-nYFP
# modifications: also: nYFP limits and sequence not given here
# notes: BiFC construct expressed in tobacco leaves; QQS is fused in-frame to the N-terminus of nYFP; not shown: nYFP (N-terminal end of yellow fluorescent protein)
# B2: GST-QQS fusion protein (other)
# chain: MKTNREQEIYVERSFKPNNSTIQNLMDIERFILPHTSTSGVARLKMRVISWVGLQFYNY
# modifications: also: fused to GST tag, position and linker not given here
# notes: also called GST-tagged QQS; not shown: glutathione-S-transferase (GST) tag
# Legend:
# AtNF-YC4-cYFP = biological target: T1, AtNF-YC4-cYFP; experiment: in vivo co-expression in tobacco leaf
# Method: QQS and AtNF-YC4 were fused in-frame to the N-terminus of nYFP (N-terminal end of yellow fluorescent protein (YFP)) and cYFP (C-terminal end of YFP), respectively. Agrobacterium strain GV3101 transformed with QQS-nYFP and AtNF-YC4-cYFP constructs were co-infiltrated into Nicotiana tabacum. The reconstituted YFP signal was observed 48 h after infiltration under a Zeiss Axioplan II fluorescence microscope.
# [1] = biological target: T2, Arabidopsis Nuclear Factor YB7 …; experiment: GST pull-down
Binder,binding result (AtNF-YC4-cYFP),binding result [1]
B1,binds,
B2,,no binding
